Experimental data taken from the DeepSol protein solubility set.

Assay: soluble on expression in E. coli; label from the status in PepcDB or PDB records

Sequence	soluble on expression in E. coli
MGSDKIHHHHHHMDGSSQEGEKKKKVYEVKTFPISFALGENQENITITTQTPSKPSKEKKFHKARMLHKQGKIAEAKKYYQQLINEGFNDHRVFSNYGVILAQLGKLKEAEISTRKAIEMQPNYAEAHSNLGIILNDLGKLEEAEICQRKAIKIKPNLTGAAWNLYGLANTIKEAEERVNQVLKIDENHVEAQLHLSALKLHQGDQSLFDNLTKSTHKDHAITRSIKWVANLPKLPELFFYRWALFDSMTKKSKKDRPFYEFGVWRGASFRYLINTFKKGYGFDTFEGLPEDWHHEAQGTYSAEGIIPNIEGGEFIAGKFEDTLPTFYSKPRPMASIINFDADLYSSTLCALNCSKPVIDKDTILIFDEFIISENWEQDEYKALNEFCSKNNLTYEVLAVSYFEKQVAVKLIGV	not soluble
MGSDKIHHHHHHMDINLYSDRLKLRNLLSRDWDFFLRLHLDKDVNQYIRSIEPESDIVAKFEQRKAVWLFESGDWLTLVIERIDNSQAVGLIGFRCDDAQLRRAEVGYLIAPEQQGLGFASESLLAVTDWGALQFSMHKYIGICAHENTASRKVLEKVGFVLEGTLKQNNCVDGKWSDDCYMGLLTAQRT	not soluble
MGSDKIHHHHHHMDITQLKMFQTVVECGTMAKASLQLHCVPSNITTRIKQLEEELGAPLFYREGKSLKLTPSGEIFLDYCHKILALCDEAKRSIHPDAPPSGPLKIGAIESSATTRLPNLLAKYHQRYPEVSIQIITGTWKQLLVDISQHKLDGAIVAGNIEFPMLNKLSIYQEDMVLIASHSLGEIRCQEDLIGKEIFMWTEGCPYRAALEEWLKLKNISLPITSITSYATIIGCVSAGSGVALVPKSIYEQYKNLAHIQSYKFEYLAFMQNHFFWHKNVSNHKARDMFIELIKSEFCL	not soluble
MGSDKIHHHHHHMDKIYVLDTNVLLQDPLSIFSFETNEVVIPAVVLEEVDSKKRYMDEVGRNARYVSKLIDKFREIGKLHESIPLENGGTFRIELNHRSFVQLQDIFVEKTNDNRILAVAKNLSLEEQEKEDGKSVILVSKDVLVRVKADAIGLKAEDYLSDRVIEVENIYSGFLEGYISKEQLDYFYEKGELPLSEIANHPFYPNQFVVMKDALGGSSSALGIVDHLGKKVKKLIFHNEQVWGIRPRNVQQIMGLELLLREDIPLVTLTGKAGTGKTLLALASGLMQTEDLGLYKKLLVARPIVPVGKDIGYLPGEKEEKLRPWMQPIFDNLEYLFNTKKPGELDAILAGMGSIEVEALTYIRGRSIPDQFIIIDEAQNLTKHEVKTILTRVGEKSKIVLMGDPQQIDHPYLDEYNNGLTYVVEKFKEQRISGHVKFVKGERSNLAQLAADLL	not soluble
MGSDKIHHHHHHMDKLLFGISGIPNGSGNEKFTYETGIDYLKSIGLDAMELPFVRSVNITNKNREGILNKKHEKDFYLSAHGSYFINLNAEENEKQEASLKRIVSGADALKSVEGKSLIFHPGFYLKDSKEETFNTIKENLKKLPDIGVDYRLETTGKPTQFGSLEENVALASEVKTCKLCIDFCHLHARYNGLFKTIEDFDKVLSYVGEKLGEAALNDMHIHMSGINYGIKGEKNHLPFKESDFPYEKCIKSFVKFNIKGCIICESPLLEKDSLLLKSIYEAS	not soluble
MGSDKIHHHHHHMDKYTALIHDENFSTLTLNVSRYPKSLAYWEKLLNYIVKASAPICKSTEPQLLKLIRCTYSSMLNEFPYLENYYIDFALLEYKLGNVSMSHKIFQRGLQAFNQRSLLLWTSYLKFCNNVISHQKQLFKKYETAEEYVGLHFFSGEFWDLYLEQISSRCTSSKKYWNVLRKILEIPLHSFSKFYALWLQRIDDIMDLKQLSQLTSKDELLKKLKIDINYSGRKGPYLQDAKKKLKKITKEMYMVVQYQVLEIYSIFESKIYINYYTSPETLVSSDEIETWIKYLDYTITLQTDSLTHLNFQRALLPLAHYDLVWIKYSKWLINSKNDLLGAKNVLLMGLKFSLKKTEIIKLLYSVICKLNEYVLLRNLLEKIESSYSDNVENVDDFEIFWDYLQFKTFCQNSLYSSRYSDSQSNGLLNKELFDKVWKRLSCKEKKSGQEILLNNLVQFYSKDTVEFVEKNIFQKIIEFGWEYYLQNGMFWNCYCRLIYFDTSRSYLDKRQYIVRKIWPQIDKKFAQSVLPSLTEFCESYFPEEMDTLEEMFTEEP	not soluble
MGSDKIHHHHHHMDLEIATVKAILTEHDLLKEIKSTKTVANTGISYDSRTVKPGYMFFCKGNFKPEYLSVARQNGATTYVSENEYPEGTGMTAIIVTNVTRAMAVLSATYYNFPQNDLFIIGITGTKGKTSSAYFAHSILNQKYPNQVALFSTIDRIVGPKPEDQFKSDLTTPESMNLFHDMRVAVDNGMKYLVMEVSSQAYLRDRVYGLKFDCGIFLNITPDHIGRNEHKDFEDYLHCKLQLMVNSKRCIIDADTDRFDDVFGAAKATTDPEQIYLFSADVENGGVDFLIQDEEDDLTSNRFTLVESSSKAEAFHVAGDYDLNVAGDYNQSNATAAIIAAALADVTYQDAVLPLKSIVIPGRMEHLNVPGHGVVFVDYAHNYASLHALLKFLKHQYHDGKVIVVVGSPGDKGISRRAGFGQALSEQADIAYLTTDDPAFEDPEQIIQQIMDNIKPGTVEVRQVLDRHDAIEQAIMNSSEKDVVVLAGKGEDPYQKVGGVDTPWPTDMGVAEEVKRGLS	not soluble
MGSDKIHHHHHHMDLENKFSYHFLEGLTLTEDGILTQGNEQVYIPQKELGVLIVLLESAGHVVLKDMIIESVWKNIIVSDESLTRCIYSLRCIFEKIGYDRCIETIYRKGYRFSGQVFKTKINEDNTSDYSIAIFPFTTSLNTLDPLILNQELVQIISNKKIDGLYTYPMAATNFCNDHISQNSFLSRFKPDYFVTGRINQNNAVNTLYIELIDAKNLFLIASNHLPVDELHNTSQFIIDNILQTVHKPERSVRLAKQDQGYKNHYLSDEMLAGKKELYDFTPESIYRAMTIFDRLQNKSDIQTLKTECYCLLAECHMSLALHGKSELELAAQKALELLDYVSDITTVDGKILAIMGLITGLSGQAKVSHILFEQAKIHSTDIASLYYYRALVHFHNEKIEEARICIDKSLQLEPRRRKAVVIKECVDMYVPNPLKNNIKLYYKETESESHRVIIDNILKLKQLTRICMR	not soluble
MGSDKIHHHHHHMDLTQLRMFCLVAETGSVARAAEQLHRVPSNLTTRLRQLELELGTDLFIREKQRLRLSPIGHNFLCYAQRILALSEEAISMTRTGEPAGNFALGSMESTAATRLPTLLAAYHQRYPNVSLSLNTGTSGEIIERVRAGTLAAALVDGPVVYDELNGCSCFAEQLVLISDPSHSPITHARDASNDTLFAFRPSCSYRKRLENWFRQDGVVPGTIMEIHSYHAMLACVASGSGLAMLPYAVLESLPAGARVQVHELPPDIAAASTWLVWRRDAFGPNVEALKKLIIEQSAQSE	not soluble
MGSDKIHHHHHHMDRFLSIEAFVRVAEASSFAEAARQLGVTSSVVTNRIQQLEKFVNAPLFHRSTRHVRLSEVGETFYRECAEVVGRVNELTDQMRELRATPTGRLRIQMLPGFALDHFGVPLAEFNRRYPGIQLDIIVNDRVVDPVEEGFDIAFQIFPPISESLIERRLFVVRRLFCASPAYLDAHGAPQHPRELLQHTTALYSGYPSRNRWTMTRGDEVVEMELPGMIRSNSVHLLREYALTGGGVVCLPTLVASEALVAGRLVPILTDFEIAPLSFAAVYPATQRQALKVKALVEFLAEYIGDESPWDRPLLERGWVR	not soluble
MGSDKIHHHHHHMDRIGIDTWANISAEGWSSLLLGNGASIAIHKEFAYPTLHGIADAKGLLATTAPIFAKLGTTDFEHVLLACWYAEHVNGALGTPSAAISAAYEEVRTALIEAVHSVHPVHADVAADLQRVGAFASAFPTVVSLNYDITLYWAMLLFNAANGSWFKDAFHDGEFQTDWEYLRRPYGHAAGATLVFYPHGSLAVARDYLGDETKLSVGAGAAGDLLGTITRRWASGHYVPVFVSEGTSHQKVAAIRRSHYLTNVYEEVLPALGESLVVYGWSFDERDQHVLAAIAANPPKRMAVSVFTGQPDGDQQAFCLQVLKAVGRSLPGTEVTFFDSRSPGCWNNP	not soluble
MGSDKIHHHHHHMDTELARTFLTVAATGNFVAAASRLHVTQSTVSARIQTLETTLGARLFQRGRNGAELTASGKRFLRHAKHLVRTVEQALHDVGLPQGFHDVLTLSGRIALWEGFLPHWVAWMREAAPDVSLRLEIGFEADIMQGLIEGTTDIGVMYTPTSRPGLVVEPLFDENLMLVTSDLARGWPEEGYIHIDWGPEFHAQFSDHFPDAPPPTVVANIGWLGVQQLLTYGGSGYFPQRLVRQLIEDGRLWRVPDSPQFKLTAWMVFPREGSATLKSALDGLRTLARDEQARL	not soluble
MGSDKIHHHHHHMDVAAEYPVDKPDTQVSVRDVFGIESDLTVPAFTEVSEHVPDRDDAYCFDRDTTLAVLAGFAFNRRVMIQGYHGTGKSTHIEQIASRLNWPCIRVNLDSHVSRIDLVGKDAIVLRDGLQVTEFREGILPWCLQRPIALTFDEYDAGRADVMFVIQRVLEVEGRLTLLDQNKVIRPHPYFRLFATANTVGLGDTTGLYHGTQQINQGQMDRWNIVATLNYLEHDVEVGIALAKRPEYDTPEGRAKINAMVGVADLSRSGFINGDISTVMSPRTVLTWAENATIFGDDAFAFRVTFLNKCDETERPIIAEYYQRCFGKELPESAAFRTAFL	not soluble
MGSDKIHHHHHHMDVDLGKLFFCGFNDFNEEVKEIIRKYRPTGILIYPGVLSKEYLLMDFMSFLSKEGDFLISSDHEGGQLEVLKYVPSSPGNLAFGKNSPDVTYRYSRVAGKIMEIVGLNMVFAPVLDLLSEESSSVIDIRSYGSDPKIVAEHGARACEGYLEGGVIPCIKHFPGHGKAREDSHLTLPVVDAPFEKLWEEDLLPFRKVLEREKKVTVMTAHVRYSSIDSLPATLSEKIITDVLREKIGFDGLVISDAMEMSAVSNNFSVEEIVSLFLNAGGNMILLGDYRNLPVYYETLVKLLEDGKVQKDKVERSIRTVEKYLAFAKKNSGVGFLADVSMKAVEFLGFEKIDHTSEVTLLVPSSENLSQADTTGGDYDQIPEIVSRFFEVENVVRYTVEDGPEFVEGDLIFDFVADIPNEKALKAHLSLPAEKTVYFVLRNPFDVRYFEGRKIVVTRSTKPISIYKSLEHFLGRCDS	not soluble
MGSDKIHHHHHHMDVENIFRDVKLSKTEMTVLRFIQNDPEQCIRQGVRAVAEQCYSNPSSLVRLAKKLKFSGWLELVYFIKFNITMPKLDVTNDIDYMSVQPEEALTPLLASLNQQRILIHGSGFSQLIAQYIYNKFLVTGVNASLALWPDYEILEQKNAACFDSIWIISKSGRSSSALNWVKALEGKEINLVCFTGDYQSPLAQAADTAFIIHDPQKFDDDIYWSNPFFGYCILGFERLLKMWFTSLRSNS	not soluble
MGSDKIHHHHHHMDWEDAPLPYKLYRNVPIIPLSLEIPLSLPNSSTTPTLNEIGHYLWCSFGLTQLCQLNSEKILFRRSIPSGGALYPNELYIYLKIDDYPDGIYHYDAAHHRLILIREGNFDSYLTEALGNRCNLQSCFGAAFVSTMFWKNFFKYNNFSYRLQGLDSGVLIGQLLECAKQFGYTNGVYFQFLDRAINHLLGLSEGEESVYAVLPFSTEPQTNWFHNDYREIKTVTSHELLQQIPPLAHEHFVRSKHVNEYPMITKINEASMIESTAQFQTLAHEEHFQHHAHAVQLPKVERLSYDFLQLCRKRYSPDADFILTKWDAAELATLLQEASLSFPYYNDLDGQYVNENARVSLYGCFYNVKDIENGAYSYNSKTHSIQPLRYGDLRYPLQSSMTMDNVNLFQVPLCLHVVGKKDYYTNALGYRGYRIHQMEAGILVHKLVFAATAMGMAGHPLLSFDTNSCDQLYGIEAGNETSLIQIPVGAYRARNWLKGALRN	not soluble
